Results taken from patent publication US20030175730, “Multivalent RNA aptamers and their expression in multicellular organisms” (published 2003).

Key:
B52 (SRp55) full length [1] = target: T1, B52 (SRp55) full length (Drosophila melanogaster, UniProt P26686 P26686:1-350); assay: EMSA; full binding activity; conditions: tags: baculovirus/Sf9 expressed, SR protein purification; label: 32P-UTP; hairpin with unfolded 3' tail
Experimental: (§1) All binding assays were performed in 20 μl volume in 1× binding buffer described above. A typical binding assay using labeled RNA contains about 20 finole of ³²P-labeled RNA probe and differing amounts (1-10 pmole) of B52 protein. A typical binding assay using the truncated versions of B52 contains 1 μl of the ³⁵S-labeled translation reaction mixture with 2 pmoles of unlabeled RNA transcript (the final concentration of RNAs in this reaction was 100 nM and concentration of the labeled B52 proteins was much lower). The reactions were allowed to equilibrate for 15-20 minutes at ambient temperature before being subjected to filter binding, gel shift, or UV crosslinking.
(§2) To determine the sequence/structure requirements for binding by B52, deletion and substitution mutations, and antisense constructs of BBS were designed in light of the shared sequence motif and predicted secondary structures (FIG. 4). These short RNA transcripts were produced by in vitro transcription of synthetic templates, and their affinity to B52 was assayed by band shift.

B52 (SRp55) full length [2] = target: T1, B52 (SRp55) full length; assay: EMSA; fully active; conditions: tags: baculovirus/Sf9 expressed, SR protein purification; label: 32P-UTP; hairpin
Experimental: as §1, §2

B52 (SRp55) full length [3] = target: T1, B52 (SRp55) full length; assay: EMSA; binds as well as BBS-I; conditions: tags: baculovirus/Sf9 expressed, SR protein purification; label: 32P-UTP; hairpin with internal loop
Experimental: as §1, §2

B52 (SRp55) full length [4] = target: T1, B52 (SRp55) full length; assay: EMSA; 1:1; 50 mM Tris pH 7.6, 200 mM KOAc, 5 mM MgCl2, excess tRNA, gel 4 C; conditions: tags: baculovirus/Sf9 expressed, SR protein purification; label: 32P-UTP; hairpin
Experimental: as §1
(§3) When individual RNA's transcribed from cloned sequences were tested by filter binding assay the BBS RNA's were all able to bind B52 to generate signals that were 20 times the background produced by RNA's from the unselected pools. […] After cloning the selected sequences, RNA transcripts without most of the 3′ constant region were made by cutting the template with the restriction endonuclease Scal. […] The band shift assay was first performed with these sequences. Two sequences randomly picked from the original unselected pool were used as controls. Increasing amounts of B52 were added to ³²P-labeled RNA probes, which contain the 5′ constant region, in the presence of a large excess of tRNA. […]

B52 (SRp55) full length [5] = target: T1, B52 (SRp55) full length; assay: EMSA; strong binder; both conserved flanking Gs; conditions: tags: baculovirus/Sf9 expressed, SR protein purification; label: 32P-UTP; hairpin
Experimental: as §1, §2

B52 RRM2+SR domain (R2S) = B52 RRM2+SR domain (R2S) (Drosophila melanogaster, UniProt P26686 P26686:115-350); assay: EMSA; 100 nM RNA, no discrete band; conditions: tags: 35S-Met, reticulocyte lysate; hairpin
Experimental: (§4) Gel shifts were performed at 4° C. The binding reaction mixtures were set at 4° C. for 5-10 minutes before being loaded onto a 2.5% agarose gel in ¼ TBE buffer. The avidity of the pentavalent RNA aptamer to B52 was examined on longer agarose gels (25 cm) to improve the resolution of RNA bands. The affinity of the RNA for the in vitro translated polypeptides was estimated by comparing the intensity of the bands representing the complex on the agarose gel and that of the corresponding polypeptides run on SDS-PAGE. To crosslink proteins to RNA, the binding reaction mixtures were irradiated for 20 minutes from 5 cm directly above by inverting a short-wavelength UV trans-illuminator. The products of crosslinking were analyzed using standard SDS-PAGE.
(§5) BBS RNAs were selected for their ability to bind full length B52 protein. It is possible that B52 binds RNA through either one or the other RRMs, the SR domain, or a combination of these domains. To identify the specific RNA-binding site on B52, a set of ³⁵S-methionine labeled B52 deletion constructs were prepared by in vitro translation and then tested for their ability to bind the selected BBS #8 RNA in two different assays (FIG. 6A). These polypeptides also serve as a second source of target proteins in binding assays to confirm the specificity of binding to the selected BBS RNA.

B52 SR domain (S) = B52 SR domain (S) (Drosophila melanogaster, UniProt P26686 P26686:189-350); assay: EMSA; 100 nM RNA, no discrete band; conditions: tags: 35S-Met, reticulocyte lysate; hairpin
Experimental: as §4, §5

RBP1 (SR protein) = target: T2, RBP1 (SR protein) (UniProt Q02427 Q02427:1-144); assay: no measurable affinity for BBS RNAs; individual BBS and method not specified; conditions: hairpin
T2 sequence: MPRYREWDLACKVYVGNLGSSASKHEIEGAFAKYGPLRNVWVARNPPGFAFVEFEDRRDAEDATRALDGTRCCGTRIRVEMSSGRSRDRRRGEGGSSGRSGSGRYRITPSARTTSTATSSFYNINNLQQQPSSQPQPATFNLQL

HSF (heat shock factor) = target: T3, HSF (heat shock factor) (UniProt P22813 P22813:1-691); assay: as above; conditions: hairpin
T3 sequence: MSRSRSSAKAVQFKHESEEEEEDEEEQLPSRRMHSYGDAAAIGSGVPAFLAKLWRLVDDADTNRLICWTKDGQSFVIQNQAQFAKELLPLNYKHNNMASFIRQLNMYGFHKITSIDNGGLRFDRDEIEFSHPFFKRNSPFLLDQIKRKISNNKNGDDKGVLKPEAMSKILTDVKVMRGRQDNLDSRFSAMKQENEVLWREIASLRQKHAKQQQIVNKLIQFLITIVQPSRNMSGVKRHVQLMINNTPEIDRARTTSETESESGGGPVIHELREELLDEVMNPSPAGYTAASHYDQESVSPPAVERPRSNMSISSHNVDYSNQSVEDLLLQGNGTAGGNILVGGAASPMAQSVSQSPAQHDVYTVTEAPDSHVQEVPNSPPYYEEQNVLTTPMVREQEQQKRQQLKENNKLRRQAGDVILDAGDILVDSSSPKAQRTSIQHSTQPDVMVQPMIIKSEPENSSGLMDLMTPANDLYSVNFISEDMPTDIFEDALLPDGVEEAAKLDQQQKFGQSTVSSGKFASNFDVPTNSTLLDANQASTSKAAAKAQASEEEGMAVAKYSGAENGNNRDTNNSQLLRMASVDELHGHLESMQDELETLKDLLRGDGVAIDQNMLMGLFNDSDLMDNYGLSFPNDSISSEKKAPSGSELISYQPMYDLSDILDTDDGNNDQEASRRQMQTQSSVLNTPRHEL

B52 RRM1+RRM2 (R12) = B52 RRM1+RRM2 (R12) (Drosophila melanogaster, UniProt P26686 P26686:4-188); assay: EMSA; affinity comparable to baculovirus B52; also UV-crosslinked; conditions: tags: 35S-Met, reticulocyte lysate; hairpin
Experimental: as §4
as §5, with “These polypeptides also serve as a second source of target proteins in binding assays to confirm the specificity of binding to the selected BBS RNA.” left out
(§6) To confirm the requirements of both RRMs for binding, these binding reactions were repeated and the reaction mixtures were subjected to UV irradiation. The UV-crosslinked species were then analyzed on SDS-PAGE. […]

B52 RRM1 (R1) = B52 RRM1 (R1) (Drosophila melanogaster, UniProt P26686 P26686:4-74); assay: EMSA; no band; not UV-crosslinked; not complemented by R2S in trans; conditions: tags: 35S-Met, reticulocyte lysate; hairpin
Experimental: as §4
as §5, with “These polypeptides also serve as a second source of target proteins in binding assays to confirm the specificity of binding to the selected BBS RNA.” left out
as §6

B52 full length (F) = B52 full length (F) (Drosophila melanogaster, UniProt P26686 P26686:1-350); assay: EMSA; 100 nM RNA; affinity comparable to baculovirus B52; conditions: tags: 35S-Met, reticulocyte lysate; hairpin
Experimental: as §1, §5

B52 (SRp55) full length [6] = target: T1, B52 (SRp55) full length; assay: EMSA; binding not compromised; conditions: tags: baculovirus/Sf9 expressed, SR protein purification; label: 32P-UTP; hairpin
Experimental: as §1, §2

B52 (SRp55) full length [7] = target: T1, B52 (SRp55) full length; assay: EMSA; consensus trapped in duplex loses binding; conditions: tags: baculovirus/Sf9 expressed, SR protein purification; label: 32P-UTP; hairpin, BBS consensus paired with its antisense via UUCG tetraloop
Experimental: as §1, §2

B52 (SRp55) full length [8] = target: T1, B52 (SRp55) full length; assay: EMSA; antisense does not bind; conditions: tags: baculovirus/Sf9 expressed, SR protein purification, label: 32P-UTP
Experimental: as §1, §2

B52 (SRp55) full length [9] = target: T1, B52 (SRp55) full length; assay: EMSA; pentavalent vs monovalent; single-unit ribozyme-cleaved transcript tested in FIG. 9A; conditions: tags: baculovirus/Sf9 expressed, SR protein purification; multivalent, five BBS hairpins closed by S35 stem
Experimental: as §4
Fragment C, which contains no binding site, served as an internal loading control in a band shift assay to assess the avidity of the pentavalent construct. During the transcription reaction, the extent of self-cleavage reached about 90% (FIG. 9A, Lane 1). […] The multivalent RNA aptamers bound B52 10-fold more avidly than the individual monovalent RNA aptamers, as shown here compared to the strong-binding primary aptamer BBS #14 (Lanes 2-4 vs. Lanes 6-8, FIG. 9A). […]

B52 (SRp55) full length [10] = target: T1, B52 (SRp55) full length; assay: filter; signal 20x background of unselected pool; conditions: tags: baculovirus/Sf9 expressed, SR protein purification; hairpin
Experimental: as §1, §3

T1 sequence (P26686 other isoform, or with tags, fused parts or gaps): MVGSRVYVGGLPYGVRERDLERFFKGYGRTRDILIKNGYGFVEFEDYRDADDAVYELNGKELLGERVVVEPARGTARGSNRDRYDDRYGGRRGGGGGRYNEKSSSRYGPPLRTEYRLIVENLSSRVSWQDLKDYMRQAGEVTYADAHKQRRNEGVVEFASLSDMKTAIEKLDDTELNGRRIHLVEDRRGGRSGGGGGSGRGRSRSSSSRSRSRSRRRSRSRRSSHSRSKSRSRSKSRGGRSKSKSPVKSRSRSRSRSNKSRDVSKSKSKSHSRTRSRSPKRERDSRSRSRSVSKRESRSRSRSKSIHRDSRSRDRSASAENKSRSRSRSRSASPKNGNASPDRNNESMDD
Sequence of B52 RRM1 (R1) (P26686 4-74, one chain of several): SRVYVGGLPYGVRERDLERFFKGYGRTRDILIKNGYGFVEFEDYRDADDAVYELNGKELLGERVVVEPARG
Sequence of B52 RRM2+SR domain (R2S) (P26686 other isoform, or with tags, fused parts or gaps): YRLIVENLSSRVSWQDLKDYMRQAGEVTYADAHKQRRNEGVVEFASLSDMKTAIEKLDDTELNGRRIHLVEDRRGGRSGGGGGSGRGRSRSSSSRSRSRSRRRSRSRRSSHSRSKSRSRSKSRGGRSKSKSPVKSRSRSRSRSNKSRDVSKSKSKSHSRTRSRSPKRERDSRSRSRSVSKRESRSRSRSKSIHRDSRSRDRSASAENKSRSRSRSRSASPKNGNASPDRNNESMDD
Sequence of B52 RRM1+RRM2 (R12) (P26686 other isoform, or with tags, fused parts or gaps): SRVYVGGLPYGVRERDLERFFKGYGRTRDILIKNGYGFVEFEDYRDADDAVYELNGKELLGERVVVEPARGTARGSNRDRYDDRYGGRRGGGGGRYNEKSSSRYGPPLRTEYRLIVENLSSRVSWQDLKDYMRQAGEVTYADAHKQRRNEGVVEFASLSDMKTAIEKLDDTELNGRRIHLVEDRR
Sequence of B52 SR domain (S) (P26686 other isoform, or with tags, fused parts or gaps): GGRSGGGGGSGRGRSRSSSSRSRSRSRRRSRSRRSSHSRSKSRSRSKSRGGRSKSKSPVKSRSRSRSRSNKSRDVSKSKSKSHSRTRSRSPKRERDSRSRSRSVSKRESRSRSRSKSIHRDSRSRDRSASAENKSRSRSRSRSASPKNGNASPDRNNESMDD

For GGCUGGUCAACCAGGCGACCGCCACCCGCGCGC (ssRNA) [BBS-I/Long], the binding signal (B52 (SRp55) full length [1]) was 1 fold of BBS #8.

With GGCUGGUCAACCAGGCGACCGCC (ssRNA) [BBS-I] the binding signal (B52 (SRp55) full length [2]) was 1 fold of BBS #8.

GGGUACGAUCAACCAGGCGACAGUACCC (ssRNA) [BBS-II]: binds (B52 (SRp55) full length [3]).

B1: BBS #8 ScaI-trimmed (ssRNA)
RNA: GGGAGAAUUCAACUGCCAUCUAGGCUGGUCAACCAGGCGACCGCCACCCGCGCGCGCAAUACCUAGU
Work on B1 yielded a Kd (B52 (SRp55) full length [4]) of roughly 20 nM.

GGACGGUCAACCAGGCGACCGU (ssRNA) [bbs-II/3'Stem]: binds (B52 (SRp55) full length [5]).

B2: BBS #8 (ssRNA)
RNA: GGGAGAAUUCAACUGCCAUCUAGGCUGGUCAACCAGGCGACCGCCACCCGCGCGCGCAAUACCUAGUACUACAAGCUUCUGGACUCGGU
B2: no binding (B52 RRM2+SR domain (R2S)); no binding (B52 SR domain (S)); no binding (RBP1 (SR protein)). B2: no binding (HSF (heat shock factor)); binds (B52 RRM1+RRM2 (R12)); no binding (B52 RRM1 (R1)). B2: binds (B52 full length (F)).

GGCGGUCAACCAGGCGACCGCC (ssRNA) [BBS-I/NoBulge]: binds (B52 (SRp55) full length [6]).

GGUCGCCUGGUUGAUCUUCGGAUCAACCAGGCGACA (ssRNA) [UUCG/BBS]: no binding (B52 (SRp55) full length [7]).

GGCGGUCGCCUGGUUGACCAGCC (ssRNA) [AntiBBS-I]: no binding (B52 (SRp55) full length [8]; hairpin).

B3: BBS #14 ScaI-trimmed (ssRNA)
RNA: GGGAGAAUUCAACUGCCAUCUAGGCAGGGUAACGAUCAACCUGGCGACAGCUGCCCUGCCGUCCAAGU
For B3, the Kd (B52 (SRp55) full length [4]) was roughly 50 nM.

B4: mature pentavalent BBS(5) aptamer (ssRNA)
RNA: GCGGCCGCCUCCGCGGCCGCCUGAUGAGUCCGUGAGGACGAAACAUGCAUGUCGAGAGUACGAUCAACCAGGCGACAGUACUCUCGACGAUCAACCAGGCGACAGUGGCUGGUCAACCAGGCGACCGCCACUGCAGGGUAACGGUCAACCAGGCGACCGUUACCCGGACGGUCAACCAGGCGACCGUUGACUUCGGUCAGUCGAGAUGCAUGUC
In the case of B4, the binding signal (B52 (SRp55) full length [9]) is reported as 10 fold more avid than BBS #14.

GGACUGUCGCCUGGUUGAUCGU (ssRNA) [AntiBBS-II]: no binding (B52 (SRp55) full length [8]).

B5: BBS #23 (ssRNA)
RNA: GGGAGAAUUCAACUGCCAUCUAGGCCCAACUGCUAAGAAGCAUCCUGUACGAUCAACCCGGCGACAGUACUACAAGCUUCUGGACUCGGU
B5: binds (B52 (SRp55) full length [10]).
